# B1: MIF4G domain-containing protein (Homo sapiens), A9UHW6 (parent)
# chain: MGEPSREEYKIQSFDAETQQLLKTALKDPGAVDLEKVANVIVDHSLQDCVFSKEAGRMCYAIIQAESKQAGQSVFRRGLLNRLQQEYQAREQLRARSLQGWVCYVTFICNIFDYLRVNNMPMMALVNPVYDCLFRLAQPDSLSKEEEVDCLVLQLHRVGEQLEKMNGQRMDELFVLIRDGFLLPTGLSSLAQLLLLEIIEFRAAGWKTTPAAHKYYYSEVSD
# Variants of: B1
# Settings: with slbp_human SLBP
row,Variant,effect of a mutation on the interaction
1,MGEPSREEYKIQSFDAETQQLLKTALKDPGAVDLEKVANVIVDHSLQDCVFSKEAGRMCYAIIAAESKQAGQSVFRRGLLNRLQQEYQAREQLRARSLQGWVCYVTFICNIFDYLRVNNMPMMALVNPVYDCLFRLAQPDSLSKEEEVDCLVLQLHRVGEQLEKMNGQRMDELFVLIRDGFLLPTGLSSLAQLLLLEIIEFRAAGWKTTPAAHKYYYSEVSD [Q64A],with no effect
2,MGEPSREEYKIQSFDAETQQLLKTALKDPGAVDLEKVANVIVDHSLQDCVFSKEAGRMCYAIIQAESKQAGQSVFRRGLLNRLQQEYQAREQLRARSLQGWVCYVTFICNIFDYLRVNNMPMMALVNPVYDCLFRLAQPDSLSKEEEVDCLVLQLHRVGEQLEKMNGQRMDELFVLIRDGFLLPTGLSSLAQLLLLEIIAFRAAGWKTTPAAHKYYYSEVSD [E200A],increasing interaction
3,MGEPSREEYKIQSFDAETQQLLKTALKDPGAVDLEKVANVIVDHSLQDCVFSKEAGRMCYAIIQAESKQAGQSVFRRGLLNALQQEYQAREQLRARSLQGWVCYVTFICNIFDYLRVNNMPMMALVNPVYDCLFRLAQPDSLSKEEEVDCLVLQLHRVGEQLEKMNGQRMDELFVLIRDGFLLPTGLSSLAQLLLLEIIEFRAAGWKTTPAAHKYYYSEVSD [R82A],with no effect
4,MGEPSREEYKIQSFDAETQQLLKTALKDPGAVDLEKVANVIVDHSLQDCVFSKEAGRMCYAIIQAESKQAGQSVFARGLLNRLQQEYQAREQLRARSLQGWVCYVTFICNIFDYLRVNNMPMMALVNPVYDCLFRLAQPDSLSKEEEVDCLVLQLHRVGEQLEKMNGQRMDELFVLIRDGFLLPTGLSSLAQLLLLEIIEFRAAGWKTTPAAHKYYYSEVSD [R76A],with no effect
5,MGEPSREEYKIQSFDAETQQLLKTALKDPGAVDLEKVANVIVDHSLQDCVFSKEAGRMCYAIIQAESKQAGQSVARRGLLNRLQQEYQAREQLRARSLQGWVCYVTFICNIFDYLRVNNMPMMALVNPVYDCLFRLAQPDSLSKEEEVDCLVLQLHRVGEQLEKMNGQRMDELFVLIRDGFLLPTGLSSLAQLLLLEIIEFRAAGWKTTPAAHKYYYSEVSD [F75A],with no effect
6,MGEPSREEYKIQSFDAETQQLLKTALKDPGAVDLEKVANVIVDHSLQDCVFSKEAGRMCYAIIQAESKQAGQSVFRRGLLNRLQQEYQAREQLRARSLQGWVCYVTFICNIFDYLRVNNMPMMALVNPVYDCLFRLAQPDSLSKEEEVDCLVLQLHRVGEQLEKMNGQRMDELFVLIRDGFLLPTGLSSLAQLLLLEIIEFAAAGWKTTPAAHKYYYSEVSD [R202A],disrupting interaction
7,MGEPSREEYKIQSFDAETQQLLKTALKDPGAVDLEKVANVIVDASLQDCVFSKEAGRMCYAIIQAESKQAGQSVFRRGLLNRLQQEYQAREQLRARSLQGWVCYVTFICNIFDYLRVNNMPMMALVNPVYDCLFRLAQPDSLSKEEEVDCLVLQLHRVGEQLEKMNGQRMDELFVLIRDGFLLPTGLSSLAQLLLLEIIEFRAAGWKTTPAAHKYYYSEVSD [H44A],with no effect
8,MGEPSREEYKIQSFDAETQQLLKTALKDPGAVDLEKVANVIVDHSLQDCVFSKEAGRMCYAIIQAESKQAGQSVFRRGLLNRLQQEYQAREQLRARSLQGWVCYVTFICNIFDYLRVNNMPMMALVNPVYDCLFRLAQPDSLSKEEEVDCLVLQLHAVGEQLEKMNGQRMDELFVLIRDGFLLPTGLSSLAQLLLLEIIEFRAAGWKTTPAAHKYYYSEVSD [R157A],with no effect
9,MGEPSREEYKIQSFDAETQQLLKTALKDPGAVDLEKVANVIVDHSLQDCVFSKEAGRMCAAIIQAESKQAGQSVFRRGLLNRLQQEYQAREQLRARSLQGWVCYVTFICNIFDYLRVNNMPMMALVNPVYDCLFRLAQPDSLSKEEEVDCLVLQLHRVGEQLEKMNGQRMDELFVLIRDGFLLPTGLSSLAQLLLLEIIEFRAAGWKTTPAAHKYYYSEVSD [Y60A],with no effect
10,MGEPSREEYAIQSFDAETQQLLKTALKDPGAVDLEKVANVIVDHSLQDCVFSKEAGRMCYAIIQAESKQAGQSVFRRGLLNRLQQEYQAREQLRARSLQGWVCYVTFICNIFDYLRVNNMPMMALVNPVYDCLFRLAQPDSLSKEEEVDCLVLQLHRVGEQLEKMNGQRMDELFVLIRDGFLLPTGLSSLAQLLLLEIIEFRAAGWKTTPAAHKYYYSEVSD [K10A],with no effect
11,MGEPSREEYKIQSFDAETQQLLKTALKDPGAVDLEKVANVIVDHSLQDCVFSKEAGAMCYAIIQAESKQAGQSVFRRGLLNRLQQEYQAREQLRARSLQGWVCYVTFICNIFDYLRVNNMPMMALVNPVYDCLFRLAQPDSLSKEEEVDCLVLQLHRVGEQLEKMNGQRMDELFVLIRDGFLLPTGLSSLAQLLLLEIIEFRAAGWKTTPAAHKYYYSEVSD [R57A],with no effect
12,MGEPSRAEYKIQSFDAETQQLLKTALKDPGAVDLEKVANVIVDHSLQDCVFSKEAGRMCYAIIQAESKQAGQSVFRRGLLNRLQQEYQAREQLRARSLQGWVCYVTFICNIFDYLRVNNMPMMALVNPVYDCLFRLAQPDSLSKEEEVDCLVLQLHRVGEQLEKMNGQRMDELFVLIRDGFLLPTGLSSLAQLLLLEIIEFRAAGWKTTPAAHKYYYSEVSD [E7A],with no effect

# Reference: IntAct's records for PubMed 23286197
